Measured values taken from patent US20170122964.

Test system: nucleosome on the remodeling DNA template with Atto 647N labeled histone H2B

Substance: ACF remodeling complex
- FRET signal (nucleosome sliding assay): Nucleosome on the remodeling DNA template shows FRET signal, which is reduced over time by the remodeling complex.
